B1: Recombinant human FGF21 (ligand, UniProt Q9NSA1 29-209, looked up)
chain: HPIPDSSPLLQFGGQVRQRYLYTDDAQQTEAHLEIREDGTVGGAADQSPESLLQLKALKPGVIQILGVKTSRFLCQRPDGALYGSLHFDPEACSFRELLLEDGYNVYQSEAHGLPLHLPGNKSPHRDPAPRGPARFLPLPGLPPALPEPPGILAPQPPDVGSSDPLSMVGPSQGRSPSYAS
notes: Fibroblast growth factor 21 (FGF21), human, recombinant; source: bought: R&D Systems
B2: MBP-tagged human recombinant BP3 devoid of its signal peptide (natural protein, UniProt Q8TAT2 27-258, looked up)
chain: RREKGAASNVAEPVPGPTGGSSGRFLSPEQHACSWQLLLPAPEAAAGSELALRCQSPDGARHQCAYRGHPERCAAYAARRAHFWKQVLGGLRKKRRPCHDPAPLQARLCAGKKGHGAELRLVPRASPPARPTVAGFAGESKPRARNRGRTRERASGPAAGTPPPQSAPPKENPSERKTNEGKRKAALVPNEERPMGTGPDPDGLDGNAELTETYCAEKWHSLCNFFVNFWNG
notes: also called FGFBP3

How the values were obtained:
[1] = target: B2; assay: ELISA; competitive binding; increasing excess of KLB or KLa bound to immobilised FGF19 or FGF21 (2.5 μg/ml) for 1 h before BP3 or MBP control (0.15 μg/ml); MaxiSorp plates; settings: both partners purified
[2] = target: T1, Human recombinant FGFR4 Fc Chimera (human, UniProt P22455 22-369); assay: binding to plate-coated receptor detected by western blot; cell-free; FGFR4 Fc chimera coated on MaxiSorp plates; FGF19 (2 μg/ml) ± BP3 or MBP control (1 μg/ml), 2 h room temperature; bound proteins blotted with anti-FGFR4, anti-MBP, anti-FGF19; settings: both partners purified
T1 construct: Fibroblast growth factor receptor 4 (FGFR4), human, as Fc chimera; Commercial Fc chimeras of this kind hold the extracellular domain; source: bought: R&D Systems

Binder	binding result [1]	binding result [2]
B1	binds	–
B2	–	binds
